Results published in the nanobody polyreactivity screen of Harvey et al. (2022).

Assay: yeast display, Sf9 membrane polyspecificity reagent, FACS + sequencing; frameworks hold sequencing errors
How it was run: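 Sorting gates, low and high (top ~1%), were placed on anti-HA fluorescence to track expression and on streptavidin fluorescence to track reagent binding. A clone's polyreactivity label is taken from the gate it came out of. The reagent was 10% biotinylated, detergent-solubilized Sf9 membrane, applied for 1 hour at 4 °C to galactose-induced yeast display cells.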

Sequence	polyreactivity (PSR sort gate)
QVQLVESGGGLVQAGGSLRLSCAASGSIFYYAMGWYRQAPGKERELVAAITWRGGRTYYADSVKGRFTISRDNAKNTVYLQMNSLKPEDTAVYYCNAVAPGKYNHWGQGTQVTVSS	high polyreactivity
QVQLVESGGGLVQAGGSLRLSCAASGSIFYYNAMGWNRQAPGKERELVAASTTRGGSTYYADSVKGRFTISRDNAKNTVYLQMYSLKPVDTEVYYCARSSRGKLDYWGQGTQVTVSS	low polyreactivity
QVQLVESGGGLVQAGGSLRLSCAASGSIFYYNAMGWSRQAPGKERELVAAIRSTGSSNDADSVKGRFTISRDNAKNTVYLQMNSLKPEDTAVYYCAADQYGRSRDYGYGYWGHGTQVTVSS	low polyreactivity
QVQLVESGGGLVQAGGSLRLSCAASGSIFYYNAMGWYIQAPGKEREFVAAISSSGGSTYYADSVMGRFTISRDNAKNNVYLQMYRLKPEDTAVYYCAAKLRHWAHHTKYDYWGQGTQLTVSS	low polyreactivity
QVQLVESGGGLVQAGGSLRLSCAASGSIFYYNTMGWYRQAPGKERELVAAISRSGTSTFYADSVKGRFTISRDYAKNTVYLQMNSLKPEDTAVYYCNAESLGWYRLYTVDYWGQGTQVTVSS	low polyreactivity
QVQLVESGGGLVQAGGSLRLSCAASGSIFYYYAMGWYRPAPGKERELVAAINSSGGNTYYADSVKGRFTISRDNAKNTVYLQMNSLKPEDTAVYYCAAASRSTNYNYWGQGTQVTVSS	high polyreactivity
QVQLVESGGGLVQAGGSLRLSCAASGSIFYYYAMGWYRQAPGKERELVAAINSGVSTYYADSVKGRFTISRDNAKNTVYLQMNSLKPEDTAVYYCAAPGHNLYGSWFSWTPDTYDYWGQGTQVTVSS	low polyreactivity
QVQLVESGGGLVQAGGSLRLSCAASGSIFYYYAMGWYRQAPGKERELVAAINSGVSTYYADSVKGRFTISRDNAKNTVYLQMNSLKPEDTAVYYCDATGHNLYGSWFSWTPDTYDYWGQGTQVTVSS	low polyreactivity
QVQLVESGGGLVQAGGSLRLSCAASGSIFYYYAMGWYRQAPGKERELVAAISKSGGSTYADSVKGRFTISRDNAKNTVYLQMNSLKPEDTAVYYCAATYYYSWYAFNYWGQGTQVTVSS	low polyreactivity
QVQLVESGGGLVQAGGSLRLSCAASGSIFYYYTMGWYRQAPGKERELVAAITWSGGRTYYADSVKGRFTISRDNAKNTVYLQMNSLKPEDTAVYYCNVDPYYGGIGDYWGQGTQVTVSS	high polyreactivity
QVQLVESGGGLVQAGGSLRLSCAASGSIIAANAMGWYRQAPGKERELVAAITFDSGSTHYADSVKGRFTISRDNAKNTFYLQMNSLKPEDTAVYYCAVRDFNSDYDDWGQGTQVTVSS	low polyreactivity
QVQLVESGGGLVQAGGSLRLSCAASGSIIAGYTMGWYRQAPGKERELVAGIRRGGSTNYADSVKGRFTISRDNAKNTVYLQMNSLKPEDTAVYYCAAYYRLDYDYWGQGTQVTVSS	high polyreactivity
QVQLVESGGGLVQAGGSLRLSCAASGSIIARYAMGSYRQAPGKERELVATITRGGSTNYADSVKGRFTISRDNAKNTVYLQMNSLKPEDTAVYYCARTSYGRLDYWGQGTQVTVSS	low polyreactivity
QVQLVESGGGLVQAGGSLRLSCAASGSIIDTYAMGWYRQAPGKERELVASWSGGSTYYADSVKGRFTISRDNAKNTVYLQMNSLKPEDTAVYYCAKDYYVQPPGTRDDYWGQGTQVTVSS	low polyreactivity
QVQLVESGGGLVQAGGSLRLSCAASGSIIDYYARGWYRQAPGKERELVAAISDSGSTYYADSVKGRFTISRDNAKNTVYLQMNSLKPEDTAVYYCAAVLWSPYRSEPLDTYEYWGQGTQVNVSS	low polyreactivity
QVQLVESGGGLVQAGGSLRLSCAASGSIIFVNAMGWYRQAPGKERELVADISSGGSTNYADSVKGRFTISRDNAKNTVYLLMNSLKPEDTAVYYCNTDEPPIYERFPYDYWGQGTQVNVSS	low polyreactivity
QVQLVESGGGLVQAGGSLRLSCAASGSIIGRNAMGWYRQAPGQEREMVAAISTRGGRTYYADSVKGRFTISRDNAKNNDYLQMNSLKPEDTAVYYCAAVGPYRWYDYWGQGTQVTVSS	high polyreactivity
